This note sets out measurements from a protein production outcome set (Wang et al. 2014).

The data set in a line: label from the status in PepcDB records.
As to “MSCVDKGFSPYISLLISGLTVVFDQVIKWQTQQSIAYGDSISLTPFFNWVHTWNTGAAFGLLSNGGGWQRYFFIGVALLMSVALTRLIFNKVSKRDGISYGLILGGAVGNLIDRLFRGYVVDSLHLGWQTWQLPVFNIADIAITLGVILLLLSNLQVSMIPNLPGSK”, the protein production result is listed as “failed”.
For the sequence “MSKHQRPRILITGAAGALAQQVIRRLRESCDLVAVDFREQVYLGDDIPSYCIDFNKRVFEDLFRRYEFDGVIHLGRILSSQLTRMRRYNANVLGTQKLLDLSHKYGIRRVIVLSTYHVYGAVAYNPALIDESAPLKSAGLSADLVDSVELENLANIYLWRYPELNITILRPCNIVGPGVRNTMSTLLSSERAPVLAGFSPMMQFIHIDDMADAIVAAWAKPVKGVFNVAPQDWVAYQHALKLCGCKTIPIPSIPPSVPKAIARVLNLRSFPPYLMAFFKYPVVIDGRAFAREFGFEPKRPLKEIFRYYRDNKKPV”, the protein production entry was “failed”.
In the case of “MRIFKLSPDEEERFFDNLPRFLFYYLFLFTIFWFGLTQKSAEEIRESILSGNVSPDFWRSTLVVLLLLAITDAYLMRKGDTNWNTPGAALFMLFGFFIMLLVVMYVGRASILFVVSLFLIYINTLIKTKEELRKKNH”, the protein production entry is given as “failed”.
With “SATERADSADFRTIIRNKIPLMDVRAPVEFGKGAFDLSINYPLMNNDERADVGICYKQNGQEAAIKLGNALVSGQSKARRLTQWQTFARENPQGYLYCFRGGLRSQTVQRWLKESGINYPLITGGYKALRQFLLNELEQLALH”, the protein production result is given as “failed”.
On to “MRYSIYLCILFVLSILSCNSKQEDRVIESFYVRKDDLGRNVSISVNPKRILSLTPSITELVYTFSDTSRLIGRSVWCDYPAGVKVIPAVNNYPLDIEGVVRLKPDLILVKQGMISVQELDKLEQLHLAVYVQKYDLLNEIYASTKTLVEITKGDSATYKHWLTSMQSDTMHTSVQHAKTCLAVTSVSPIYVFGKTTFVSELIEQAGGKNCVETIQSAYPTVDVEYILRANPDVFIFNSTDQQKLFFETYPLLKQCKGYITNQLFVIDDSIMSRPGIRLPILKDSLVSILSK”, for which the protein production entry is on record as “failed”.
Regarding “MKSIEKDKYQDIRDAVRSLCSEFDDKYHRKIDEAKAYPEEFVNKLTKAGWLAALIPEEFGGSGLGLTEASIIMEEINRSGGNSGACHGQMYNMNTLLRHGSDKQKEFWLPRIATGEWRLQSMGVTEPTAGTDTTRIKTTAVKREDRYVINGQKVWISRVQHSDWMILLVRTTPLANVKRKSEGMSIFMVDIKEAMKNGMTVRPIPNMVNHETNELFFDNLEIPEENLIGEEGMGFHYILDGLNAERTLIAAECIGDGYWFMDRVTRYTCEREVFGRPIGQNQGVQFPIAEAFIAVEAANLMRFKACELFDQHLDCGAQANMAKYLAAKASWEAANACLQFHGGYGFACEYDIERKFRETRLYQVAPISTNLILSYIAEHVLEMPRSF”, the protein production result was “failed”.
The result for “MESDIEILSEADASMRKLRIFGIDDREDENGRRRIKDVEVYVPIVCGSIAFYLGKKATEYRTHKWTVYVRGATNEDLGVVIKRVIFHLHPSFNNPTRVVDAPPFALSECGWGEFKIDITVFFHTDVCEKKLELSHVLKLNPENAYGPIPKSIKIPVVAESYNEVVFPDPFESFVARVHNHPAIQISNIPDGLNLPPPGAFLF” reads “not failed”; that for “MDPLALLRKAGLEAEGPALPLHGGDISRVWRVGRFVVKTAQDPPPGLFRAEARGLQALAERGVRVPQVHWVGEEGLVLAYLEPGPEDWEGLARTLAALHRRREGSYLAEPGFLGTFPLPGREGGEWTAFFYERCVLPLLEATWDRLQGLGPKVEALYRRPLPAEGPAPLHGDLWHGNVYFAREGPALLDPSFFVGERGVDLAMMRLFGGFPRRFWEVYGELYPVPEEVERALPRYQVYYLLAHVHFFGQGYLGALWRAISAS”, “failed”.
With “MAGRFAPRPPRAVVRDGIPRQALAPGRVRVWAPDGPLDVGLVLGPLRRGPGDPTFRTMPDGSVWRTGRTPAGPGTLRVTARGGEVRGEAWGPGAEWLLERLPLMLGAEDDPSAFVPRHRLLAVTAHRRPGLRLTRTGLVLESLIPSILEQKVTTLEAYQAWRLLVRKFGEPAPGPAPGRMCVMPAARTWALIPSWEWHLAGVDDKRASTVLRAVRVAARLEEAAGMEPAAARERLELVPGVGPWTSAETVQRSHGAPDAVTVGDLHLPGIVGFALGGDRYADDAEMLRLLEPYAGQRHRAARLVLLSGRVPERRAPRMAPRGIERL”, the protein production result is listed as “failed”.
Regarding “MVTSSSMRRCRGALSLSFWIFLVLRSVLSRPVFGAAAGPAVQSARQCSASRGTGESDPPPFQPTLRLFPPSRRRRSYCRAMTPSRPSPDFPDGGFVQVRGARQHNLKDISVKVPRDALVVFTGVSGSGKSSLAFGTLYAEAQRRYLESVSPYARRLFNQAGVPDVDAIDGLPPAVALQQARGTPTARSSVGSVTTLSNLLRMLYSRAGDYPPGQGIVYAEGFSPNTPEGACPECHGLGRVYTVTEDSMVPDPSLTIRERAVAAWPQAWGGQNQRDILVTLGIDVDVPWRELPEETRHWILFTDEQPVVPVYPGLTPAETQRALKKKMEPSYMGTFSSARRHVLHTFANTESASMKKRVQGYMISEECPLCHGKRLRQEALNVTFAGLDITELSRLPLARVSELLRPYAEEREPGHAERVKNRPEQAIALQRMAADLVKRLDVLLHLGLGYLGLDRSTPTLSPGELQRLRLATQLYSNLFGVVYVLDEPSAGLHPADTEALLSALENLKRGGNSLFVVEHDLDVIRRADWLVDVGPEAGEKGGEILYSGPPEGLKHVPESQTGQYLFADRHTEPHTPREPAGWLELNGVTRNNLDNLDVRFPLGVMTSVTGVSGSGKSTLVSQALVDALAAHFGQPVNPDPEDDEDPADHTAGSARLGGDLAQITRLVRVDQKPIGRTPRSNMATYTGLFDQVRKLFAATPLAKKRGYNAGRFSFNVKGGRCEHCQGEGWVMVELLFLPSVYAPCPVCHGTRYNAETLEVEYRGKNIADVLALTVDEAHDFFADESAIFRALDTLREVGLGYLRLGQPATELSGGEAQRIKLATELQRSGRGGTVYVLDEPTTGLHPADVERLQRQLVKLVDAGNTVIAVEHKMQVVAASDWVLDIGPGAGEDGGRLVAQGTPAEVAQAAGSVTAPYLRAALRLEHHHHHH”, the protein production entry is reported as “failed”.
As for “MANKKNKVKFNICNVHYAPITVADEGKVSFGTPVAMPGAVSISMDPTGEPESFYADGIEYYVINNNQGYDGDLELAMIPETFRTDILKEEADSNNVLVENANSETGSFALLFEFDGDIRKIRHVLYNCSASRPTIESKTNEEDKEVQTETLTIKARPMADGYVKAKTGDSTTDTVYNNWYKSVYLPNSLEHHHHHH”, the protein production result is recorded as “failed”.
Regarding “PGSPPGEGAPLAADVYVGNLPRDARVSDLKRALRELGSVPLRLTWQGPRRRAFLHYPDSAAAQQAVSCLQGLRLGTDTLRVALARQQRDK”, the protein production entry was “not failed”.
Consider “MAEITENTKKILEVILNLKEGQVMSYRDVGALAGLPNGARQVSRILHSMSKKYELPWWRVVRSDRTIGLPEPAKSEQMELLKKEGISFTAQGKIIIEDELLLEHHHHHH”, for which the protein production entry is recorded as “not failed”.
As for “MKSRTRWLTSEELVTLFEAMRQAPGFSVENGLSIKLLLLLAVRKGELIGARWSEFDLDKAVWYLPAERTKTESAIDIPLPPIAVEWLRELQRLAGVSKWVLPARKMQDRMIPHIAESTLSVALAKIKHGLEPFTIHDLRRTARTHFEALGVAPHIAERCLNHKIKGIEGIYNRHDYFEERKAALEAWAGLLLQIERGEADKVVPIRRAVATKQLEHHHHHH”, the entry is “failed”.
Take “MLQEDLRKKAGQLFAVGFHGVVPSPEIKTLIHEYGIGGIVLFKRNIQNAMQLQLPGPMALGATHSPELAYQVGQVTGETLRFFGINMNYAPVCDINSEPLNPVIGPRSPGDDPEFVGRFASAAAQGLREQKIIPSVKHFPGHGDTAVDSHYGLPVIEKTREQLERCELIPFRRAVAEGVEAVMTAHISLPAIGDGKLPATLSADVLSILRNEMQFEGMIITDCLEMDGIRATYGTEQGAVLSLEAGSDSIMICHTYAVQVASIQKVCEAVQSGQLSASRLEEAYRRVVKLKSKFLSWDTALLTRSLDDLVTLNRKAA”: the protein production entry is on record as “failed”.
Consider “ESEPYVRLTTLRQLHQVMADMNTARSLADTLQTVADGVVNGLGYELACVNLVRPDGDLVVAAFAGNSAAEALITGRVGSRVSWDRRLDMGEAWGDLRFIPHTEGWVLDEDDVPQWYTDGPEPRFEDEWHPSDRLFAPMYTPGVQGASCGELIGVLSVDRPRNGRKPGAWGREALQMYAFQAAIAISNARLRANMQRALVRLEREQQALRASEESFRQAFEYAPS”, for which the protein production entry is given as “failed”.
Turning to “MNYVKYHLLALLVTLLVAGSFISSEKLSGVVNPFSLTLLRFVIAAFTLLPFVLFKAQYRKGIIRALPRSLIMSVFFSVFFICMFEALKTTTPLNTGTLYTLVPFLTAIFSIFAFKEKITKKRLVVYLIGSAGTSWIIFGGDIEALLAFSLNGGDALFIGGCISMVCYSISMKFLYRGDEIIVIVFCTLFCGALWMLLALLVFNQPLQWHLLKSDLWFHMGYLALFATLASTFIIQKTTVVLGPSKVMAYIYLNPICVAFLMLFIEGKSIPSIVFPGMIISLIATIVLQFQNRNNANK”, the protein production entry is given as “failed”.
As for “MPMPMACWCRRSRCRWMAPADRSDRKPEGDAVTLKRWLSGGVLMVASLVATTHAAELPAGMQQFDVQMERVRKQFDVPGIAVAIVKDGQVVLERGYGVRETGKPAPVQADTLFAIASNTKAFTAASLSILADEGKLSLEDKVIDHLPWFRMSDPYVGGEMRIRDLLAHRSGLSLGAGDLLFWPTTSYTTEEVVQRLAKVPLKGGFRDRYAYDNILYAVAQKVIEQVSGQSYEAFLQQRIFAPVGMRGTRFNADHLQAGDHAAVGHAKYDFTELRTVAPLTWSNNSGAGGIYSSAHDMALWMNVQLAGGILPDGKPLFSAKRQHEMWSMITPIPIGEVQLPEFAAARPNFAGYGEGWSLSDYRGHRMVWHTGGWPGMVSRLTLLPDQKLGVVVLTNQEVGAAFNAVTFQVLDAFLRVPPTDWTAAYAKLVEKADSDADASWKKHQDARAARSTPSLPLRSYAATYRDPWYGDVVIVQDGKRLRLQFAKTAQLVGTLEHWQHDSFIVRWDDRSLNADAFVNFLLTPDGAVREMRMEPISPLTDFSFDFQDLVLTPVPTETAAGK”, the entry is “failed”.
For the sequence “MATPKFAEIKQYITGCIESGEWEENARVPSENQLAELFVCSRMTARRALTELTDNGVLERSQGLGTFVAGRKSQSSMLAIRNIADEIKDRGHGYSVQQLALEQVNATAPIAIALALDVGSPVFHSILVHCEQGVPLQVEERYVNPAFAPDYLVQDFSEQTPHEYLSQVAPLTEAHHTIEAIIASSELQQRLAIPATEPCLQISRRTWSRQGVVSFAKLVHPGSRFKLGGHLTFNK”, the protein production entry was “failed”.
For the sequence “MEGDVYSGFGERYQMDGKLLQNFQKSFVQVQDILDQNRLLINEINQNHESKQADHLGRNVGLIRELNNNIRTVASLYGDLSHSFARSVDASSEGESTGTLKSDGKANNQKRFRSG”, the protein production entry is recorded as “failed”.
Consider “GGTPSPQLTSRQEIAVVPKVFDASTMFLEAQMASIQILEQENKKIGYVHIWSNAADPYQQELQNELIYGRLRNADGLILDLRDGWGGGDISYLNIFTAKQSPSVTHVQRNGRRYTYNYQWKKPVVMLVNEGSRSSKEILAFNFQQNQIGPVLGTKTTGAVVAGRPYIMQDGSLLYVAVADVFLNGNQRLEGKGVTPDINVPFSLEYAQGVDPQKQTAIETLLKAL”, for which the protein production result is given as “failed”.
In the case of “MDGKRVWLSDDELTRFIEQAETPHQRLAFLLAGRVGLRRSEIIEVCPQDLVDGPTGDHIRVWESYAKRDKYREPPVPQEVVTIAETLAYQQDDDEPLLDVAGSTVYRWVRRAADELEEETGDRGWQYLDVHDLRRTWGTYLLEQGVIPSVVMSFGGWEDWDTFRKHYLGLEHHHHHH”, the protein production result is “failed”.
